B1: multimerin-1 (MMRN1): T216A (protein)
parent chain: MKGARLFVLLSSLWSGGIGLNNSKHSWTIPEDGNSQKTMPSASVPPNKIQSLQILPTTRVMSAEIATTPEARTSEDSLLKSTLPPSETSAPAEGVRNQTLTSTEKAEGVVKLQNLTLPTNASIKFNPGAESVVLSNSTLKFLQSFARKSNEQATSLNTVGGTGGIGGVGGTGGVGNRAPRETYLSRGDSSSSQRTDYQKSNFETTRGKNWCAYVHTRLSPTVILDNQVTYVPGGKGPCGWTGGSCPQRSQKISNPVYRMQHKIVTSLDWRCCPGYSGPKCQLRAQEQQSLIHTNQAESHTAVGRGVAEQQQQQGCGDPEVMQKMTDQVNYQAMKLTLLQKKIDNISLTVNDVRNTYSSLEGKVSEDKSREFQSLLKGLKSKSINVLIRDIVREQFKIFQNDMQETVAQLFKTVSSLSEDLESTRQIIQKVNESVVSIAAQQKFVLVQENRPTLTDIVELRNHIVNVRQEMTLTCEKPIKELEVKQTHLEGALEQEHSRSILYYESLNKTLSKLKEVHEQLLSTEQVSDQKNAPAAESVSNNVTEYMSTLHENIKKQSLMMLQMFEDLHIQESKINNLTVSLEMEKESLRGECEDMLSKCRNDFKFQLKDTEENLHVLNQTLAEVLFPMDNKMDKMSEQLNDLTYDMEILQPLLEQGASLRQTMTYEQPKEAIVIRKKIENLTSAVNSLNFIIKELTKRHNLLRNEVQGRDDALERRINEYALEMEDGLNKTMTIINNAIDFIQDNYALKETLSTIKDNSEIHHKCTSDMETILTFIPQFHRLNDSIQTLVNDNQRYNFVLQVAKTLAGIPRDEKLNQSNFQKMYQMFNETTSQVRKYQQNMSHLEEKLLLTTKISKNFETRLQDIESKVTQTLIPYYISVKKGSVVTNERDQALQLQVLNSRFKALEAKSIHLSINFFSLNKTLHEVLTMCHNASTSVSELNATIPKWIKHSLPDIQLLQKGLTEFVEPIIQIKTQAALSNLTCCIDRSLPGSLANVVKSQKQVKSLPKKINALKKPTVNLTTVLIGRTQRNTDNIIYPEEYSSCSRHPCQNGGTCINGRTSFTCACRHPFTGDNCTIKLVEENALAPDFSKGSYRYAPMVAFFASHTYGMTIPGPILFNNLDVNYGASYTPRTGKFRIPYLGVYVFKYTIESFSAHISGFLVVDGIDKLAFESENINSEIHCDRVLTGDALLELNYGQEVWLRLAKGTIPAKFPPVTTFSGYLLYRT
B2: multimerin-1 (MMRN1): T1055A (protein)
parent chain: B1 parent chain
B3: multimerin-1 (MMRN1): POFUT1 KO (protein)
parent chain: B1 parent chain
B4: multimerin-1 (MMRN1): POFUT2 KO (protein)
parent chain: B1 parent chain

What was measured:
[1] = anti-Myc Western of HEK293T medium, IgG-normalised; settings: glycan lost; control: MMRN1 WT-Myc
[2] = anti-Myc Western of medium, IgG-normalised; settings: glycan lost; control: WT HEK293T cells

Protein | expression_or_secretion [1] | expression_or_secretion [2]
B1 | decreases | 
B2 | decreases | 
B3 |  | abolishes
B4 |  | no change
